Reference: IntAct's records for PubMed 19019158

B1: TrfB transcriptional repressor protein (Escherichia coli), P03052 (parent)
chain: MKKRLTESQFQEAIQGLEVGQQTIEIARGVLVDGKPQATFATSLGLTRGAVSQAVHRVWAAFEDKNLPEGYARVTAVLPEHQAYIVRKWEADAKKKQETKR

Variants of: B1
Conditions: with korb2_ecolx korB

effect of a mutation on the interaction | Variant
decreasing interaction strength | P68A
disrupting interaction strength | V74A
disrupting interaction strength | L78A
decreasing interaction strength | Q82A
disrupting interaction strength | Y84A
